B1: GBA_AB9 (scFv)
fusion protein monomer: ARPCIPKSFGYSSVVCVCNATYCDSFDPPTFPALGTFSRYESTRSGRRMELSMGPIQANHTGTGLLLTLQPEQKFQKVKGFGGAMTDAAALNILALSPPAQNLLLKSYFSEEGIGYNIIRVPMASCDFSIRTYTYADTPDDFQLHNFSLPEEDTKLKIPLIHRALQLAQRPVSLLASPWTSPTWLKTNGAVNGKGSLKGQPGDIYHQTWARYFVKFLDAYAEHKLQFWAVTAENEPSAGLLSGYPFQCLGFTPEHQRDFIARDLGPTLANSTHHNVRLLMLDDQRLLLPHWAKVVLTDPEAAKYVHGIAVHWYLDFLAPAKATLGETHRLFPNTMLFASEACVGSKFWEQSVRLGSWDRGMQYSHSIITNLLYHVVGWTDWNLALNPEGGPNWVRNFVDSPIIVDITKDTFYKQPMFYHLGHFSKFIPEGSQRVGLVASQKNDLDAVALMHPDGSAVVVVLNRSSKDVPLTIKDPAVGFLETISPGYSIHTYLWRRQLKEFMGYQGPPGPPGPPGIPGNHGNNGNNGATGHEGAKGEKGDKGDLGPRGERGQHGPKGEKGYPGIPGYCGPPGPPGPPGIPGNHGNNGNNGATGHEGAKGEKGDKGDLGPRGERGQHGPKGEKGYPGIPDYKDDDDKLQISGGGGSGGGGSQVTLKESGPGILQPSQTLSLTCSFSGFSLNTFGMGVSWIRQPSGKGLEWLAHIFWDDDKHYNPSLKSRLTISKDTSNNQVFLKITTVDTADTATYYCVRYGFDGFPYWGQGTLVTVSAGGGGSGGGGSGGGGSDVVMTQTPLSLPVSLGDQASISCRSNQSLVHSNGNTYLHWYLQKPGQSPKLLIYKVSNRFSGVPDRFSGSGSGTDFTLKISRVEAEDLGFYFCSQSTRVPWTFGGGTKLELKRAAAHHHHHHV
notes: fusion of glucocerebrosidase, CCD and Aβ9 scFv; tested as conditioned media and as protein purified from media and lysate; also called hGBA-CCD-Aβ9 scFv; GBA-CCD-antiAβ9 scFv fusion protein
B2: FGFR1-CCD fusion protein (receptor)
chain: RPSPTLPEQAQPWGAPVEVESFLVHPGDLLQLRCRLRDDVQSINWLRDGVQLAESNRTRITGEEVEVQDSVPADSGLYACVTSSPSGSDTTYFSVNVSDALPSSEDDDDDDDSSSEEKETDNTKPNPVAPYWTSPEKMEKKLHAVPAAKTVKFKCPSSGTPNPTLRWLKNGKEFKPDHRIGGYKVRYATGSIIMDSVVPSDKGNYTCIVENEYGSINHTYQLDVVERSPHRPILQAGLPANKTVALGSNVEFMCKVYSDPQPHIQWLKHIEVNGSKIGPDNLPYVQILKTAGVNTTDKEMEVLHLRNVSFEDAGEYTCLAGNSIGLSHHSAWLTVLEALEERPAVMLKEFMGYQGPPGPPGPPGIPGNHGNNGNNGATGHEGAKGEKGDKGDLGPRGERGQHGPKGEKGYPGIPGYCGPPGPPGPPGIPGNHGNNGNNGATGHEGAKGEKGDKGDLGPRGERGQHGPKGEKGYPGIPDYKDDDDKLQISSTVAAAHHHHHHV
notes: CCD fusions are said to form multimers (trimers, hexamers); It was expressed in cells, isolated and purified; also called Fibroblast growth factor receptor 1 (hsFGFR1) CCD fusion

How the values were obtained:
[1] = molecular target: T1, amyloid beta peptide (Aβ) (UniProt P05067 672-713); assay: ELISA on plates coated with Aβ42 peptide, detection with anti-FLAG M2 HRP ('Ab9 scFv activity, Aβ42 ELISA')
T1 construct: also called Aβ9; Aβ9 ligand
T1 sequence (P05067 672-713): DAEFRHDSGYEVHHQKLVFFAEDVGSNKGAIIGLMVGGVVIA
Experimental: An ELISA-based assay was performed to assess Aβ9 scFv activity. 96-well plates were coated with Aβ42 peptide, and 293T conditioned media (containing the GBA-CCD and GBA-CCD-Aβ9 scFv proteins) and cell lysate were then added and incubated for 6 hours. ELISA was developed with anti-FLAG M2 HRP. (See FIG. 23.)

acidic FGF = molecular target: T2, acidic FGF (UniProt P05230 16-155, limits assumed); assay: SPR, FGFR1-CCD injected over immobilized ligand
T2 construct: also called acidic FGF ligand
T2 sequence (P05230 16-155 limits assumed): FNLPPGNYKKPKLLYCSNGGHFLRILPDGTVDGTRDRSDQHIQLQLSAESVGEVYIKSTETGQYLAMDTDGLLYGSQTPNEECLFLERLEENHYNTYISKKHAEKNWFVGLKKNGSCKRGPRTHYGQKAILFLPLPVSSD
Experimental: Using a surface plasmon resonance (SPR) technique, the binding kinetics of FGFR1 was measured with two ligands, basic FGF and acidic FGF. A null FGFR1 ligand, vascular endothelial growth factor A (VEGFA), was used as a control. In SPR experiments, the binding of a molecule in the soluble phase (e.g. the peptide of the fusion protein) to a ligand molecule immobilized on a sensor surface is directly measured as a reflected light signal (SPR signal) in a biosensor device. The sensor device may contain an LED-emitting near infrared light, a glass prism fixed to a sensor microchip, and a position-sensitive diode array detector. Binding events cause changes in the refractive index at the surface layer, which are detected as changes in the SPR signal. Specifically, a signal arises when incident LED light is totally internally reflected from the metal-coated interface between two media of different refractive indices (the glass prism and solution). When the incident light is focused on the surface in a wedge, the drop in intensity at the resonance angle appears as a “shadow” in the reflected light wedge, which is detected by the detector. […]
This sensorgram consists of two phases: (Left) In the association phase, the FGFR1-CCD was injected over immobilized ligands on the surface. […] Binding kinetics, including the value of KD, the dissociation constant, can be calculated from the sensorgram.

| Binder | binding result [1] | Kd (acidic FGF) [pM] |
| --- | --- | --- |
| B1 | binds |  |
| B2 |  | < 1 |

— patent publication US20220324943A1 (UNIVERSITY OF FLORIDA RESEARCH FOUNDATION, published 2022)
